Assay results as given in patent US20090011988A1 (Genentech, published 2009).
Substitutions are numbered along the chain they refer to. In names and notes the source's numbering stands. No end group written: not given here.

T1: human IGFBP-1 (human, UniProt P08833 26-259)
T1 sequence (looked up): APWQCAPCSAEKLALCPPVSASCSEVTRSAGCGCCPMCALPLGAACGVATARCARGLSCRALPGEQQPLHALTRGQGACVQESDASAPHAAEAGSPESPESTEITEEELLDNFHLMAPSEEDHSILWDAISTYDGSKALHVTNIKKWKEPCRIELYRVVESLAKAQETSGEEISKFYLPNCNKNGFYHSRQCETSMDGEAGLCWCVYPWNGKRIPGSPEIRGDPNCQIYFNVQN

B1: 23A3.4 (peptide)
peptide displayed on M13 phage as a fusion to g8p: EPWLCQYYEAAMLYLCWEEG
modifications: not fully specified (bridges); cysteine pairing not given here; also: displayed on phage coat protein g8
notes: whole phage particle in the assay; also called peptide-phage clone 23A3.4 (g8 display)
B2: 23B3.5 (peptide)
peptide displayed on M13 phage as a fusion to g8p: DKEVCYLGPETWLCFWWP
modifications: not fully specified (bridges); cysteine pairing not given here; also: displayed on phage coat protein g8
notes: whole phage particle in the assay; also called peptide-phage clone 23B3.5 (g8 display)
B3: 23A3.1 (peptide)
peptide displayed on M13 phage as a fusion to g8p: EPWLCQYYEAAMLYLCWEEG
modifications: not fully specified (bridges); cysteine pairing not given here; also: displayed on phage coat protein g8
notes: whole phage particle in the assay; also called peptide-phage clone 23A3.1 (g8 display)
B4: Ala(1-3)-IGF-1 displayed on phage (ligand, bacteriophage M13)
chain: AAATLCGAELVDALQFVCGDRGFYFNKPTGYGSSSRRAPQTGIVDECCFRSCDLRRLEMYCAPLKPAKSVSGGGSGSGDFDYEKMANANKGAMTENADENALQSDAKGKLDSVATDYGAAIDGFIGDVSGLANGNGATGDFAGSNSQMAQVGDGDNSPLMNNFRQYLPSLPQSVECRPFVFSAGKPYEFSIDCDKINLFRGVFAFLLYVATFMYVFSTFANILRNKES
notes: range 249-406
B5: IGF-1 P2A displayed on phage (ligand, bacteriophage M13)
chain: B4 chain with A1S, A3E
notes: range 249-406; G1S-A70V background
B6: 23B3.1 (peptide)
peptide displayed on M13 phage as a fusion to g8p: TGVDCQCGPVHCVCMDWA
notes: whole phage particle in the assay; also called peptide-phage clone 23B3.1 (g8 display)
B7: 23B3.2 (peptide)
peptide displayed on M13 phage as a fusion to g8p: EVLLCSDGPQLYLCELYA
modifications: not fully specified (bridges); cysteine pairing not given here; also: displayed on phage coat protein g8
notes: whole phage particle in the assay; also called peptide-phage clone 23B3.2 (g8 display)
B8: 23B3.4 (peptide)
peptide displayed on M13 phage as a fusion to g8p: SGVECVWGPQWGFCVEEY
modifications: not fully specified (bridges); cysteine pairing not given here; also: displayed on phage coat protein g8
notes: whole phage particle in the assay; also called peptide-phage clone 23B3.4 (g8 display)
B9: IGF-1 D45A displayed on phage (ligand, not shown: large carriers; small tags and cut ends)
chain: SPETLCGAELVDALQFVCGDRGFYFNKPTGYGSSSRRAPQTGIVAECCFRSCDLRRLEMYCAPLKPAKSV
notes: G1S-A70V background
B10: IGF-1 R56A displayed on phage (ligand, not shown: large carriers; small tags and cut ends)
chain: B9 chain with A45D, R56A
modifications: not fully specified; ends and bridges not checked
notes: G1S-A70V background
B11: IGF-1 M59A displayed on phage (ligand, not shown: large carriers; small tags and cut ends)
chain: B9 chain with A45D, M59A
modifications: not fully specified; ends and bridges not checked
notes: G1S-A70V background
B12: IGF-1 L57A displayed on phage (ligand, not shown: large carriers; small tags and cut ends)
chain: B9 chain with A45D, L57A
modifications: not fully specified; ends and bridges not checked
notes: G1S-A70V background
B13: IGF-1 D53A displayed on phage (ligand, not shown: large carriers; small tags and cut ends)
chain: B9 chain with A45D, D53A
modifications: ends and bridges not checked; also: displayed on M13 phage, fused to g3p fragment (249-406) via amber-codon residue
notes: G1S-A70V background
B14: IGF-1 V44A displayed on phage (ligand, not shown: large carriers; small tags and cut ends)
chain: B9 chain with V44A, A45D
notes: G1S-A70V background
B15: IGF-1 E58A displayed on phage (ligand, not shown: large carriers; small tags and cut ends)
chain: B9 chain with A45D, E58A
modifications: ends and bridges not checked; also: displayed on M13 phage, fused to g3p fragment (249-406) via amber-codon residue
notes: G1S-A70V background
B16: IGF-1 T41A displayed on phage (ligand, not shown: large carriers; small tags and cut ends)
chain: B9 chain with T41A, A45D
notes: G1S-A70V background
B17: IGF-1 E46A displayed on phage (ligand, not shown: large carriers; small tags and cut ends)
chain: B9 chain with A45D, E46A
notes: G1S-A70V background
B18: IGF-1 L54A displayed on phage (ligand, not shown: large carriers; small tags and cut ends)
chain: B9 chain with A45D, L54A
modifications: ends and bridges not checked; also: displayed on M13 phage, fused to g3p fragment (249-406) via amber-codon residue
notes: G1S-A70V background
B19: IGF-1 G42A displayed on phage (ligand, not shown: large carriers; small tags and cut ends)
chain: B9 chain with G42A, A45D
notes: G1S-A70V background
B20: IGF-1 R50A displayed on phage (ligand, not shown: large carriers; small tags and cut ends)
chain: B9 chain with A45D, R50A
notes: G1S-A70V background
B21: IGF-1 R55A displayed on phage (ligand, not shown: large carriers; small tags and cut ends)
chain: B9 chain with A45D, R55A
modifications: not fully specified; ends and bridges not checked
notes: G1S-A70V background
B22: IGF-1 F49A displayed on phage (ligand, not shown: large carriers; small tags and cut ends)
chain: B9 chain with A45D, F49A
notes: G1S-A70V background; also called IGF-F49A phage
B23: IGF-1 S51A displayed on phage (ligand, not shown: large carriers; small tags and cut ends)
chain: B9 chain with A45D, S51A
modifications: not fully specified; ends and bridges not checked
notes: G1S-A70V background
B24: IGF-1 I43A displayed on phage (ligand, not shown: large carriers; small tags and cut ends)
chain: B9 chain with I43A, A45D
notes: G1S-A70V background

Experiments:
human IGFBP-1 = biological target: T1, human IGFBP-1; assay: competitive phage ELISA
Method: (§1) E. coli cells (XL1-Blue, Stratagene) freshly transformed with phagemid vector were grown overnight in 5 mL 2YT medium (Sambrook et al., supra) in the presence of M13-VCS helper phage (Stratagene). Phage particles were harvested and resuspended in PBS buffer as described in Lowman, H. B., “Phage Display of Peptide Libraries on Protein Scaffolds,” in Cabilly, S. (ed.), Combinatorial Peptide Library Protocols (Humana Press Inc.: Totowa, N.J., 1998), pp. 249-264. Then phage concentrations were normalized to yield a maximal ELISA signal of 0.2-0.4 for each mutant (Lowman, in Cabilly, S. (ed.), supra). Threefold serial dilutions of soluble competitor were prepared on non-absorbent microtiter plates (Nunc, F, 96 wells) with binding buffer (0.5% TWEEN 20%/PBS) containing phage at the previously determined concentrations. […] After blocking, the plates containing immobilized target were washed with 0.05% TWEEN™/PBS buffer and subsequently incubated with 80 μl/well of the premixed phage-competitor solutions for 1 hour at room temperature. […] IC₅₀ values were determined by fitting the binding data to a generic saturation curve (Lowman, in Cabilly, S. (ed.), supra). At least two individual clones of each IGF-1 mutant were assayed. Numbers in Table XIII represent mean±standard deviation of individually assessed IC₅₀ values.

[1] = biological target: T2, recombinant human IGFBP-3 (human, UniProt P17936 28-291); assay: competitive phage ELISA
Method: as §1

[2] = biological target: T2, recombinant human IGFBP-3; assay: phage ELISA (IGF-blocking phage assay): g8 peptide-phage on an IGFBP-3-coated plate, without and with IGF-1; OD492
Method: The plates were then washed ten times, as above, and a solution of rabbit anti-phage antibody mixed with a goat-anti-rabbit conjugate of horseradish peroxidase was added. After an incubation of 1 hour at room temperature, the plates were developed with a chromogenic substrate, o-phenylenediamine (Sigma). The reaction was stopped with addition of ½ volume of 2.5 M H₂SO₄. Optical density at 490 nm was measured on a spectrophotometric plate reader.
In each case, the phagemid clone was grown from a single colony overnight at 37° C. in a culture volume of 5 ml. The phage particles were prepared as described above.

T2 sequence (P17936 28-291 limits assumed): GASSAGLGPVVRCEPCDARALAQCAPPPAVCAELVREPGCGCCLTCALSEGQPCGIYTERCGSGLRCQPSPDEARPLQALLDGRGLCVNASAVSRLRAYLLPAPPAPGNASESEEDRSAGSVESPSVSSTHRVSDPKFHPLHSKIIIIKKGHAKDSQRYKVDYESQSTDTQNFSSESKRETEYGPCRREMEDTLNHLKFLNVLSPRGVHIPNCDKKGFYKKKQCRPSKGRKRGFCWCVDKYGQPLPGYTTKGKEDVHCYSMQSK

Row | Molecule | IC50 (human IGFBP-1) | relative IC50 (mut/G1S-A70V) (human IGFBP-1) | IC50 [1] | relative IC50 (mut/G1S-A70V) [1] | binding result [2]
1 | IGF-1 V17A displayed on phage (from UniProt P69168 267-424) (ligand) | 42.9 nM | 5.2 | 3.67 nM | 4.9 | 
2 | IGF-1 Q15A displayed on phage (from UniProt P69168 267-424) (ligand) |  |  |  | 1.7 | 
3 | IGF-1 D12A displayed on phage (from UniProt P69168 267-424) (ligand) | 4.3 nM | 0.5 |  |  | 
4 | IGF-1 F25A displayed on phage (from UniProt P69168 267-424) (ligand) | 181 nM | 22.1 | 3.69 nM | 4.9 | 
5 | IGF-1 Y24A displayed on phage (from UniProt P69168 267-424) (ligand) |  |  | 2.53 nM | 3.4 | 
6 | IGF-1 G22A displayed on phage (from UniProt P69168 267-424) (ligand) |  |  | 2.07 nM | 2.8 | 
7 | IGF-1 D20A displayed on phage (from UniProt P69168 267-424) (ligand) |  |  | 1.11 nM | 1.5 | 
8 | IGF-1 L10A displayed on phage (from UniProt P69168 267-424) (ligand) | 311 nM | 37.9 | 3.55 nM | 4.7 | 
9 | IGF-1 P28A displayed on phage (from UniProt P69168 267-424) (ligand) |  |  | 1.41 nM | 1.9 | 
10 | IGF-1 F23A displayed on phage (from UniProt P69168 267-424) (ligand) |  |  | 2.18 nM | 2.9 | 
11 | IGF-1 L14A displayed on phage (from UniProt P69168 267-424) (ligand) | 36.7 nM | 4.5 |  |  | 
12 | B1 |  |  |  |  | binds
13 | B2 |  |  |  |  | binds
14 | B3 |  |  |  |  | binds
15 | B4 | 90.4 nM |  | 1.12 nM |  | 
16 | B5 | 11 nM |  | 0.81 nM |  | 
17 | B6 |  |  |  |  | binds
18 | B7 |  |  |  |  | binds

Row | Molecule | IC50 (human IGFBP-1) | relative IC50 (mut/G1S-A70V) (human IGFBP-1) | IC50 [1] | relative IC50 (mut/G1S-A70V) [1] | binding result [2]
19 | B8 |  |  |  |  | binds
20 | B9 | 4.7 nM |  | 0.69 nM |  | 
21 | B10 | 13.1 nM |  | 1 nM |  | 
22 | B11 | 13.1 nM |  | 0.74 nM |  | 
23 | B12 | 21.8 nM |  | 1.78 nM |  | 
24 | B13 | 15.3 nM |  | 1.05 nM |  | 
25 | B14 | 18.8 nM |  | 1.03 nM |  | 
26 | B15 | 11.9 nM |  | 1.03 nM |  | 
27 | B16 | 13.7 nM |  | 0.43 nM |  | 
28 | B17 | 7.9 nM |  | 0.94 nM |  | 
29 | B18 | 23.1 nM |  | 1.83 nM |  | 
30 | B19 | 15.7 nM |  | 0.53 nM |  | 
31 | B20 | 16.2 nM |  | 0.64 nM |  | 
32 | B21 | 9 nM |  | 0.66 nM |  | 
33 | B22 |  | > 100 | 2.72 nM |  | 
34 | B23 | 13.4 nM |  | 0.65 nM |  | 
35 | B24 | 31.3 nM |  | 1.17 nM |  | 
